In patent publication US20130315910A1 (Xencor, published 2013):

Experiments:
Assay in all cases: SPR
[1] = biological target: T1, human FcγRIIb receptor protein (R&D Systems) (human, UniProt P31994 46-217)
T1 construct: Bought protein injected over captured antibody in Biacore; also called CD32b
T1 sequence (looked up): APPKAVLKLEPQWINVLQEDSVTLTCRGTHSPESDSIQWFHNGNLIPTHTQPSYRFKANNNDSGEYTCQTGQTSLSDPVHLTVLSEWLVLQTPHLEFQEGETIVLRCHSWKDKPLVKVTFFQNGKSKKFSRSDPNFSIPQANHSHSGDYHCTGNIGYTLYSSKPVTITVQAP

[2] = biological target: T2, human FcγRI receptor protein (R&D Systems) (human, UniProt P12314 16-288)
T2 construct: also called soluble FcγRI; solFcγRI
T2 sequence (P12314 16-288 limits assumed): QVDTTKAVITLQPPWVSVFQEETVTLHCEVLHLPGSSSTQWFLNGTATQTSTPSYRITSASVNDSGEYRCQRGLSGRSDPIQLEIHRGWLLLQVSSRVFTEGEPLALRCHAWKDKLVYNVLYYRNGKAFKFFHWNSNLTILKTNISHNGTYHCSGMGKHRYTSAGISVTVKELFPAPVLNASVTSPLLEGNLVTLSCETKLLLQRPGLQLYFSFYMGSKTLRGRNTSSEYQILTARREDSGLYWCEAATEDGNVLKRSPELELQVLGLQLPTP

[3] = biological target: T3, human FcγRIIa (131R), His- and GST-tagged (human, UniProt P12318 34-217)
T3 construct: Expressed in HEK293T cells, purified by nickel chromatography; also called R131 FcγRIIa; not shown: 6xHis and GST tags of the pTT5 vector
T3 sequence (looked up): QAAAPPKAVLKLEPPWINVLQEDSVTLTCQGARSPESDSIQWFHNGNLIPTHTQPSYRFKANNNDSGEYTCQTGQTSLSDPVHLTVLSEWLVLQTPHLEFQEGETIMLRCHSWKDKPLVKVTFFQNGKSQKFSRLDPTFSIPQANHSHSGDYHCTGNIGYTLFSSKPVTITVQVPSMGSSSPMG

[4] = biological target: T4, human FcγRIIa (131H), His- and GST-tagged (human, UniProt P12318 34-217)
T4 construct: also called H131 FcγRIIa; HIIa; not shown: 6xHis and GST tags of the pTT5 vector
T4 sequence (looked up): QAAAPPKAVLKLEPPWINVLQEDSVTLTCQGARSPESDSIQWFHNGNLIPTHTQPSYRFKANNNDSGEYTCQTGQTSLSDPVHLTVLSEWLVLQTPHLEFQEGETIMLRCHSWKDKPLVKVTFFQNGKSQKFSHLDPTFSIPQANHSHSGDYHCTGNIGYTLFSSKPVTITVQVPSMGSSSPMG

[5] = biological target: T5, human FcγRIIIa (158V), His- and GST-tagged (human, UniProt P08637 17-208)
T5 construct: also called V158 FcγRIIIa; VIIIa; not shown: 6xHis and GST tags of the pTT5 vector
T5 sequence (P08637 17-208 F176V): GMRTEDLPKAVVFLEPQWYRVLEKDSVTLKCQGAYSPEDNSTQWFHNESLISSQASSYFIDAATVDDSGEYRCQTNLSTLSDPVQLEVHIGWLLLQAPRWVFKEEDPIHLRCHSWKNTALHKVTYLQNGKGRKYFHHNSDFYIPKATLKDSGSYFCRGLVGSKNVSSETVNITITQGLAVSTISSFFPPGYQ

B1: L235D/S267E (antibody, human IgG1, kappa)
heavy: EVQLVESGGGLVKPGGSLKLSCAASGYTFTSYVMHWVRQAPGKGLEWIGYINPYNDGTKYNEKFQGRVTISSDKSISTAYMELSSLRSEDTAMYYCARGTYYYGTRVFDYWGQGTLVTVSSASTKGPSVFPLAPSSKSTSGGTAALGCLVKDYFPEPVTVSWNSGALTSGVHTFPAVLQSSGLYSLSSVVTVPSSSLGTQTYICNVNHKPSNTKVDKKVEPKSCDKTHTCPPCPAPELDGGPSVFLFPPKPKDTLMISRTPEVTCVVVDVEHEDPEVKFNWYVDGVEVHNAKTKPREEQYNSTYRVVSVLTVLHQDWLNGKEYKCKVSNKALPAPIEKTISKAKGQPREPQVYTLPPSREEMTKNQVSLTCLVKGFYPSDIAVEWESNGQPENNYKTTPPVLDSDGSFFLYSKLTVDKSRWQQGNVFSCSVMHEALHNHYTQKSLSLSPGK
light: DIVMTQSPATLSLSPGERATLSCRSSKSLQNVNGNTYLYWFQQKPGQSPQLLIYRMSNLNSGVPDRFSGSGSGTEFTLTISSLEPEDFAVYYCMQHLEYPITFGAGTKLEIKRTVAAPSVFIFPPSDEQLKSGTASVVCLLNNFYPREAKVQWKVDNALQSGNSQESVTEQDSKDSTYSLSSTLTLSKADYEKHKVYACEVTHQGLSSPVTKSFNRGEC
notes: HuAM4G7 anti-CD19 IgG1 (m1) with these Fc substitutions, EU index; copies: 2 + 2
With B1 the “Fold vs WT IgG1” value [1] was 16.7 fold, the Kd [1] was 88.1 nM and the “Fold vs WT IgG1” value [2] was 0.00039 fold. The Kd [2] was 854 nM, the “Fold vs WT IgG1” value [3] was 13 fold and the Kd [3] was 66.1 nM. B1: no binding [4]; no binding [5].

B2: L235D/S267E/L328F (antibody, human IgG1, kappa)
heavy: EVQLVESGGGLVKPGGSLKLSCAASGYTFTSYVMHWVRQAPGKGLEWIGYINPYNDGTKYNEKFQGRVTISSDKSISTAYMELSSLRSEDTAMYYCARGTYYYGTRVFDYWGQGTLVTVSSASTKGPSVFPLAPSSKSTSGGTAALGCLVKDYFPEPVTVSWNSGALTSGVHTFPAVLQSSGLYSLSSVVTVPSSSLGTQTYICNVNHKPSNTKVDKKVEPKSCDKTHTCPPCPAPELDGGPSVFLFPPKPKDTLMISRTPEVTCVVVDVEHEDPEVKFNWYVDGVEVHNAKTKPREEQYNSTYRVVSVLTVLHQDWLNGKEYKCKVSNKAFPAPIEKTISKAKGQPREPQVYTLPPSREEMTKNQVSLTCLVKGFYPSDIAVEWESNGQPENNYKTTPPVLDSDGSFFLYSKLTVDKSRWQQGNVFSCSVMHEALHNHYTQKSLSLSPGK
light: DIVMTQSPATLSLSPGERATLSCRSSKSLQNVNGNTYLYWFQQKPGQSPQLLIYRMSNLNSGVPDRFSGSGSGTEFTLTISSLEPEDFAVYYCMQHLEYPITFGAGTKLEIKRTVAAPSVFIFPPSDEQLKSGTASVVCLLNNFYPREAKVQWKVDNALQSGNSQESVTEQDSKDSTYSLSSTLTLSKADYEKHKVYACEVTHQGLSSPVTKSFNRGEC
notes: as for B1
B2 was tested, and the “Fold vs WT IgG1” value [1] was 80.4 fold, the Kd [1] was 18.2 nM and the “Fold vs WT IgG1” value [2] was 0.00057 fold. For the same binder, the Kd [2] was 573 nM, the “Fold vs WT IgG1” value [3] was 133 fold and the Kd [3] was 6.45 nM. For the same binder, the “Fold vs WT IgG1” value [4] was 0.275 fold, the Kd [4] was 2350 nM and the binding result [5] was “no binding”.

B3: L235Y/S267E/L328F (antibody, human IgG1, kappa)
heavy: EVQLVESGGGLVKPGGSLKLSCAASGYTFTSYVMHWVRQAPGKGLEWIGYINPYNDGTKYNEKFQGRVTISSDKSISTAYMELSSLRSEDTAMYYCARGTYYYGTRVFDYWGQGTLVTVSSASTKGPSVFPLAPSSKSTSGGTAALGCLVKDYFPEPVTVSWNSGALTSGVHTFPAVLQSSGLYSLSSVVTVPSSSLGTQTYICNVNHKPSNTKVDKKVEPKSCDKTHTCPPCPAPELYGGPSVFLFPPKPKDTLMISRTPEVTCVVVDVEHEDPEVKFNWYVDGVEVHNAKTKPREEQYNSTYRVVSVLTVLHQDWLNGKEYKCKVSNKAFPAPIEKTISKAKGQPREPQVYTLPPSREEMTKNQVSLTCLVKGFYPSDIAVEWESNGQPENNYKTTPPVLDSDGSFFLYSKLTVDKSRWQQGNVFSCSVMHEALHNHYTQKSLSLSPGK
light: DIVMTQSPATLSLSPGERATLSCRSSKSLQNVNGNTYLYWFQQKPGQSPQLLIYRMSNLNSGVPDRFSGSGSGTEFTLTISSLEPEDFAVYYCMQHLEYPITFGAGTKLEIKRTVAAPSVFIFPPSDEQLKSGTASVVCLLNNFYPREAKVQWKVDNALQSGNSQESVTEQDSKDSTYSLSSTLTLSKADYEKHKVYACEVTHQGLSSPVTKSFNRGEC
notes: as for B1
B3 was tested, and the “Fold vs WT IgG1” value [1] was 187 fold, the Kd [1] was 7.83 nM and the “Fold vs WT IgG1” value [2] was 0.00436 fold. The Kd [2] was 75.5 nM, the “Fold vs WT IgG1” value [3] was 171 fold and the Kd [3] was 5.02 nM. For the same binder, the “Fold vs WT IgG1” value [4] was 0.758 fold, the Kd [4] was 853 nM and the binding result [5] was “no binding”.

B4: L235Y/S239D/S267E (antibody, human IgG1, kappa)
heavy: EVQLVESGGGLVKPGGSLKLSCAASGYTFTSYVMHWVRQAPGKGLEWIGYINPYNDGTKYNEKFQGRVTISSDKSISTAYMELSSLRSEDTAMYYCARGTYYYGTRVFDYWGQGTLVTVSSASTKGPSVFPLAPSSKSTSGGTAALGCLVKDYFPEPVTVSWNSGALTSGVHTFPAVLQSSGLYSLSSVVTVPSSSLGTQTYICNVNHKPSNTKVDKKVEPKSCDKTHTCPPCPAPELYGGPDVFLFPPKPKDTLMISRTPEVTCVVVDVEHEDPEVKFNWYVDGVEVHNAKTKPREEQYNSTYRVVSVLTVLHQDWLNGKEYKCKVSNKALPAPIEKTISKAKGQPREPQVYTLPPSREEMTKNQVSLTCLVKGFYPSDIAVEWESNGQPENNYKTTPPVLDSDGSFFLYSKLTVDKSRWQQGNVFSCSVMHEALHNHYTQKSLSLSPGK
light: DIVMTQSPATLSLSPGERATLSCRSSKSLQNVNGNTYLYWFQQKPGQSPQLLIYRMSNLNSGVPDRFSGSGSGTEFTLTISSLEPEDFAVYYCMQHLEYPITFGAGTKLEIKRTVAAPSVFIFPPSDEQLKSGTASVVCLLNNFYPREAKVQWKVDNALQSGNSQESVTEQDSKDSTYSLSSTLTLSKADYEKHKVYACEVTHQGLSSPVTKSFNRGEC
notes: as for B1
For B4, the “Fold vs WT IgG1” value [1] was 116 fold, the Kd [1] was 12.6 nM and the “Fold vs WT IgG1” value [2] was 1.07 fold. For the same binder, the Kd [2] was 0.307 nM, the “Fold vs WT IgG1” value [3] was 98.9 fold and the Kd [3] was 8.68 nM. For the same binder, the “Fold vs WT IgG1” value [4] was 1.05 fold, the Kd [4] was 617 nM and the “Fold vs WT IgG1” value [5] was 2.6 fold. It also gave a Kd [5] of 73.5 nM.

B5: L235Y/G236D/S267E (antibody, human IgG1, kappa)
heavy: EVQLVESGGGLVKPGGSLKLSCAASGYTFTSYVMHWVRQAPGKGLEWIGYINPYNDGTKYNEKFQGRVTISSDKSISTAYMELSSLRSEDTAMYYCARGTYYYGTRVFDYWGQGTLVTVSSASTKGPSVFPLAPSSKSTSGGTAALGCLVKDYFPEPVTVSWNSGALTSGVHTFPAVLQSSGLYSLSSVVTVPSSSLGTQTYICNVNHKPSNTKVDKKVEPKSCDKTHTCPPCPAPELYDGPSVFLFPPKPKDTLMISRTPEVTCVVVDVEHEDPEVKFNWYVDGVEVHNAKTKPREEQYNSTYRVVSVLTVLHQDWLNGKEYKCKVSNKALPAPIEKTISKAKGQPREPQVYTLPPSREEMTKNQVSLTCLVKGFYPSDIAVEWESNGQPENNYKTTPPVLDSDGSFFLYSKLTVDKSRWQQGNVFSCSVMHEALHNHYTQKSLSLSPGK
light: DIVMTQSPATLSLSPGERATLSCRSSKSLQNVNGNTYLYWFQQKPGQSPQLLIYRMSNLNSGVPDRFSGSGSGTEFTLTISSLEPEDFAVYYCMQHLEYPITFGAGTKLEIKRTVAAPSVFIFPPSDEQLKSGTASVVCLLNNFYPREAKVQWKVDNALQSGNSQESVTEQDSKDSTYSLSSTLTLSKADYEKHKVYACEVTHQGLSSPVTKSFNRGEC
notes: as for B1
B5 was tested, and the “Fold vs WT IgG1” value [1] was 25 fold, the Kd [1] was 58.7 nM and the binding result [2] was “no binding”. For the same binder, the “Fold vs WT IgG1” value [3] was 9.67 fold, the Kd [3] was 88.8 nM and the binding result [4] was “no binding”. B5: no binding [5].

B6: L235I (antibody, human IgG1, kappa)
heavy: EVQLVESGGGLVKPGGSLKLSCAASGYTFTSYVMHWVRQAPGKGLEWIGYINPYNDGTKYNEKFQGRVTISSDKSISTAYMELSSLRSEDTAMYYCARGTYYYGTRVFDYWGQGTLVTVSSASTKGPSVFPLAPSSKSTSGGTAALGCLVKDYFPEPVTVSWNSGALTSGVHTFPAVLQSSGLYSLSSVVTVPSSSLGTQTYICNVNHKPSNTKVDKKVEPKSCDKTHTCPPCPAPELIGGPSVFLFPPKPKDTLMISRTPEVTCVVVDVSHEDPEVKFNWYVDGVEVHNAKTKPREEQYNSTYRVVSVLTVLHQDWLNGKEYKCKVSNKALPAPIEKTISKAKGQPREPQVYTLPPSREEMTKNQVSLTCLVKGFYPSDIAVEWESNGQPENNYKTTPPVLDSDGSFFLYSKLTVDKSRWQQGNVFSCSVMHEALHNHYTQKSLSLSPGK
light: DIVMTQSPATLSLSPGERATLSCRSSKSLQNVNGNTYLYWFQQKPGQSPQLLIYRMSNLNSGVPDRFSGSGSGTEFTLTISSLEPEDFAVYYCMQHLEYPITFGAGTKLEIKRTVAAPSVFIFPPSDEQLKSGTASVVCLLNNFYPREAKVQWKVDNALQSGNSQESVTEQDSKDSTYSLSSTLTLSKADYEKHKVYACEVTHQGLSSPVTKSFNRGEC
notes: HuAM4G7 anti-CD19 IgG1 (m1) with this Fc substitution, EU index; copies: 2 + 2
For B6, the “Fold vs WT IgG1” value [1] was 0.908 fold, the Kd [1] was 1620 nM and the “Fold vs WT IgG1” value [2] was 0.0197 fold. For the same binder, the Kd [2] was 16.7 nM, the “Fold vs WT IgG1” value [3] was 0.666 fold and the Kd [3] was 1290 nM. The “Fold vs WT IgG1” value [4] was 0.181 fold, the Kd [4] was 3580 nM and the “Fold vs WT IgG1” value [5] was 0.903 fold. For the same binder, the Kd [5] was 212 nM.

B7: L235Y/S267E/H268E (antibody, human IgG1, kappa)
heavy: EVQLVESGGGLVKPGGSLKLSCAASGYTFTSYVMHWVRQAPGKGLEWIGYINPYNDGTKYNEKFQGRVTISSDKSISTAYMELSSLRSEDTAMYYCARGTYYYGTRVFDYWGQGTLVTVSSASTKGPSVFPLAPSSKSTSGGTAALGCLVKDYFPEPVTVSWNSGALTSGVHTFPAVLQSSGLYSLSSVVTVPSSSLGTQTYICNVNHKPSNTKVDKKVEPKSCDKTHTCPPCPAPELYGGPSVFLFPPKPKDTLMISRTPEVTCVVVDVEEEDPEVKFNWYVDGVEVHNAKTKPREEQYNSTYRVVSVLTVLHQDWLNGKEYKCKVSNKALPAPIEKTISKAKGQPREPQVYTLPPSREEMTKNQVSLTCLVKGFYPSDIAVEWESNGQPENNYKTTPPVLDSDGSFFLYSKLTVDKSRWQQGNVFSCSVMHEALHNHYTQKSLSLSPGK
light: DIVMTQSPATLSLSPGERATLSCRSSKSLQNVNGNTYLYWFQQKPGQSPQLLIYRMSNLNSGVPDRFSGSGSGTEFTLTISSLEPEDFAVYYCMQHLEYPITFGAGTKLEIKRTVAAPSVFIFPPSDEQLKSGTASVVCLLNNFYPREAKVQWKVDNALQSGNSQESVTEQDSKDSTYSLSSTLTLSKADYEKHKVYACEVTHQGLSSPVTKSFNRGEC
notes: as for B1
With B7 the “Fold vs WT IgG1” value [1] was 69.9 fold, the Kd [1] was 21 nM and the “Fold vs WT IgG1” value [2] was 0.0103 fold. The Kd [2] was 32.1 nM, the “Fold vs WT IgG1” value [3] was 48.2 fold and the Kd [3] was 17.8 nM. For the same binder, the “Fold vs WT IgG1” value [4] was 0.157 fold, the Kd [4] was 4130 nM and the “Fold vs WT IgG1” value [5] was 0.428 fold. For the same binder, the Kd [5] was 447 nM.
